The domain aggregation screens of Martell et al. (2025)

Experiment: soluble fraction after stress (log2 fold change); higher = more stays soluble; pooled small domains, quantitative proteomics
Conditions: stress: 75 degC
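Note: 20 min heating vs room temperature control held 20 min.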

Sequence | soluble fraction (log2)
HMSREMIKSELESISGLGKSGIEKLYTHFINIENIKSASLENIRNIPGISYKVADNIYKHFH | -0.238
HMSRLGINTTIEDIKMVGKIIMPLLKQGQSVYQILASHPEIPYSEKTLYSYIEDNIFKDAGIDISVFDL | -1.32
HMSRLLERARDLMAKPGAWLSAEGGAYALRLSPDRRSRISLTLTETEFRALIDQPGLRVRPGGGWSGRA | -3.05
HMSRMGDSIKSLRSRNNMSQDALAEKLNVTRQAISNWENSKTQPDADTLKNLGIIFNVTVDEIINNDF | 0.0824
HMSRQREWIYDYIQSHPDRHMSVEEIYEGLKAENREVSVATVYRNLKILQDENRIASLMLESGKQVFDK | -0.384
HMSRREEALIALAQRVARQVARTKQPVTLEPMPANERRVIHVALRDNPDVETRSSGEGDQRRVTVYPRQ | -0.228
HMSRRIEIELTSSRPDGSWTWRAAGAREPKGVLDGTLLSQGSKPGDVVKAEAEFDIDGITIVSITQ | -0.405
HMSRSKLNRLDKIKKMLIAQTGISIKEFSASLNVSEITIRRDLNLLEEQGFIRLVNGVAIYRM | -1.75
HMSRSLEIDVLVKALLEQDRRKFMLVTDGTADVTVRYNNALPSLFREGQGVVAEGLMDNGKFIATNVLAK | -0.811
HMSRSLLAALEKLRESHTGSLPASVLSSAQRRSLESFAQTTKSVQMRPSGRGVVFAIINPEVVDKHWRELS | -0.959
HMSRSSQMVNFIRLLSQEKKVSVNSIFSSSVQLSDGIIVKINDFYYRVNLSLDQKTYSLVEVS | -0.483
HMSRVKQERLNRFVEAFEAYFRSVHPGEIDVEYLKSDEFGDIFESILHRVMHTASEEKMHRFKKILLNEM | -2.14
HMSSADIPFSRFIDDVEAQRVEKVTIDGVNVTGRYRSDGAAFKTIIPSQYDGLVPILRQNKVDITVKDA | 0.24
HMSSAMDMISRDVRNADSISISTTTYSKKIDLYNFDRNGDIEELHSYSAKNDLGILYNDEPI | -0.35
HMSSANIKLDPLERQATQQIINNIKRKYPNATIENLQEVANDAIATMRQPEFSNYTVDKFVSYFLSM | -0.519
HMSSARKVTVRGVRELPGIFMEKAEILDDGVRFFYRGEMEKLIGALQGLPIRDLTITEPDLEEVFLHFY | -1.48
HMSSASETQYELALQAMRDGDNDAALRSLSTALASGFSDWQRIDEEPLLAALANDVRFQVLRSRWK | 0.0593
HMSSDLVDYLVKYVAIVDNQEIEIADSKIGTAELGTTVSEVAKTVGNYYPKATVLSVKITGRNQEIVFEY | -2.91
HMSSEPYISLPRGAAHDAYPLSTKAVAAQLGMSEVWLANLRSKGKGPRYVRVGTRVFYSPEDVAQWRRAT | -1.18
HMSSESIIIKKLIEEFIHNENKYSPLSDEKLSYLLKNKGFSVARRTVAKYRDELGILSTRERKIKI | -1.76
HMSSEYARFFSGNYYEVLGVAKNASYDEIKAAWKKLVKEYHPDLHPQRQEEFTKIIQKINEAYEYFKKMH | -0.583
HMSSFFLIDVSQVRIGMYIQLDVGWMRHPFPVNSFRITNQEQLDTLRSLNLAQVRWSPAKSDL | -3.64
HMSSFIEAIKQSGTDSLDVIMKNGRVYRYVGIDADRLGYLLEPHQQKLSLEESIGRFYIDYIKGIYEAIE | -1.47
HMSSGNLESLLNKLHNEDYFVRLDAVKALGALGDPGAIDYLIEMLSENGIMRGWVANSLAALGEAQWKKII | -2.22
HMSSHSAEAVRHRIKSMIDHEARDGDVLSDDRIVELLNQAGIDIARRTVAKYREALRIPSSVERKRRLKA | -0.163

Sequence | soluble fraction (log2)
HMSSKRDQFIVLGQEILEKMFKNEGLEFSEKGLLAVMPNFEAESINDIYAKVGEGLISGWDVMKAVYPAY | -0.311
HMSSKSLAALSPQEYRLLPLVAEGKTNKEIASALALSDKTVKNYLANIFSKLGITRRTQAATLYARAL | -0.338
HMSSKYLKIYNDIVGKIDSGIFEANTKLPSESQLMDEYNVSRYTVRKSLNLLEQNGYIEKSKGKGSFVLDM | -1
HMSSLQFVTLTLMEGHAWVGREIQELLMPPQMRIALIRRGDSQVIPKGSTILESADELILSAIEYQG | -4.48
HMSSLREQVADALRAHLVSGRMRPGVLYSAPKLAAEFGVSATPVREAMLDLVSEGLVDVVRNKGFRVT | -0.597
HMSSPPNPQLAKRYISYSVDDIARLFGIHRHTVREWIKRGLPVIDQQRPLLVQGADLAEFLRKRRA | -0.948
HMSSPVIQINTRNDGWIIKLLQPAVEKDVLEGYLADVGLKLQSQMMEKILAAPAGTEFHIKRGSNILTE | -0.291
HMSSQADEEALFKLLAANPYSDEQLEEIRIAIGSGIAYKDIIRIADIGNTAERMKQLRLEFTKDTAN | 0.173
HMSSQGSLEKGYSALLDGRLDDAALAYGAALAANPMERDALLGLAYVAHSKGRREEAQALYRKVLR | -0.303
HMSSSTFVGRVAVITIGEARQNSPAEARFKDRHGTTHYVMVEPMEDVVFKQGDKVLLVESAGATFKVIEPA | -1.58
HMSSTSISFNDFQKYWLSNDIKSFQLREDKMTVQGSLKNGTAYETVVPSERLFQFIGQHPKD | 0.863
HMSSVDLLSERERQVLARISRGMSNEEIAAELAITPRTVRNHLANIYGKIDVHSRAEAVVWARERGIT | -0.362
HMSSVEQAILETLSKEHSHLTSLQVFEEIRGRLPAVNQSTVYRALERLVEQGVVSVSDMGTHAAVYE | -0.197
HMSSVMMPDLTGESAIVAMERLQQLGLLPKVEEVDSYREPGIVLEQLPRAGEKIKRGRIAILKVSS | -0.0579
HMSSVTGMERFLSSGAVKGIGKTMAARIVEHFGTETMTVLESFPERLAEVPGIGAKKAEAIGQSYSEISD | 0.158
HMSSVVARRARIATLVVETSVASQEELGRLLADEGITVTQATLSRDLDALGAVKVLSADGGTRYRIPGQ | -1.87
HMSSVVVARTWTDTTGDFKVEAELLGVEGGLVRLKKEDGTVLSVPIAKLSTADRTFLQENQP | 0.00842
HMSSWEDNFSYWIRNVAETLDKDLLNVANSKLEKIIINAALDQTNGKKNEAAILLGLGRNTLAKKIKELG | -0.799
HMSSWEEQLKIWAKNELASGNTDILARATVSFEQILIEAALTHTGGRKKTAAELLGWGRNTLTRKIKELHI | 0.0904
HMSSWEVLAEPIQTVMRRYGVPGAYEKLKEVTRGKSLTAEALHALIRSLDIPQADKERLLALTPAAWA | -1.34
HMSSYAEVMERSKYLQLHKYKIWKSETDGFWRTYYLNEQGKRKMKKLKHSEDMIDFVIEYVQNNE | -2.17
HMSTDDILSSITALRLASVQFQLGQFDPALDSLKLVKEQAWSGAKNILAGDIQLAKGDKEAAKASYQQAQQ | -0.422
HMSTDIPFNIFSQKWNADEIDSIVVENNKIEGKTKDNKKFSTYAPDELLTSLMENHKNPNVIVEFRAP | 0.576
HMSTDKIDIVSSAILSSLKDNDGFIGLTDKSPPPEIYTAFRVSKKVFKQAIGALYKQRRITLESSGIRLIS | -0.288
HMSTDSTQLLGFNKTGEELPIYKEANEENKFAEIPQNVYVKNFGQNGEFTKIKYLDQEGYVKTAGLK | 0.955
